The values that follow are results of earlier work, collected in article PMC4872106.

This series concerns the target M.EcoKI (Escherichia coli) (UniProt P08957). The following applies: cited from earlier work.

Chain of Ocr (P03775 whole entry): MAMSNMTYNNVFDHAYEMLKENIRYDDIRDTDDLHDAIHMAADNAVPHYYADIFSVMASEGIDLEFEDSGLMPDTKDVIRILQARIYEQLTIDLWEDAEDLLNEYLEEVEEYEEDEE
Chain of M.EcoKI (Escherichia coli) (P08957 whole entry, chain 1 of 2): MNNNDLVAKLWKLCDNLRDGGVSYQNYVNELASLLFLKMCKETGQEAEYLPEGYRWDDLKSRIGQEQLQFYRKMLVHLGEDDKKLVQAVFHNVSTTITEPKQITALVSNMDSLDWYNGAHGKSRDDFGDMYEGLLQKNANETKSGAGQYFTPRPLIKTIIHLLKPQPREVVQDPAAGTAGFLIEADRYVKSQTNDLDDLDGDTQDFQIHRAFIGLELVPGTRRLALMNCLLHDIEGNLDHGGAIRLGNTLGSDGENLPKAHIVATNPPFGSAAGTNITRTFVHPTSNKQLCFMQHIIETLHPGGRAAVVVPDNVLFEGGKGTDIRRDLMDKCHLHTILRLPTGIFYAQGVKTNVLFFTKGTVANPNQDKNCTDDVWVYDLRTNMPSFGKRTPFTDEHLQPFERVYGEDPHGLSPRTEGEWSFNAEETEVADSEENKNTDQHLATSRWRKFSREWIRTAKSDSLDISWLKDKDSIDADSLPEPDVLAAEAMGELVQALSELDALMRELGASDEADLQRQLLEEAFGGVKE
Chain of M.EcoKI (Escherichia coli) (P05719 2-464, chain 2 of 2, further chain): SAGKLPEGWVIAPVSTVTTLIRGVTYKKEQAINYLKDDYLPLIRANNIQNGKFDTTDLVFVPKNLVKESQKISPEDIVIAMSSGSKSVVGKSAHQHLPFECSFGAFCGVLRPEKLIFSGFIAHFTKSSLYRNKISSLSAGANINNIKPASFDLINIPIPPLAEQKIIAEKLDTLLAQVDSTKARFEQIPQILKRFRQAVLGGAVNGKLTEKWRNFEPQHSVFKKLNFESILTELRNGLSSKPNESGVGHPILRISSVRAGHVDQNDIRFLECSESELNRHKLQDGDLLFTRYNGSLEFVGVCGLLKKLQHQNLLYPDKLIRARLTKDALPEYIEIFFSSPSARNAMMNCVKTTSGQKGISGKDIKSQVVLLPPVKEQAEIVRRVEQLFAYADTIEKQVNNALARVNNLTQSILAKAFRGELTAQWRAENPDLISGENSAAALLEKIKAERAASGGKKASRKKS

In the case of Ocr (from UniProt P03775), the Kd was 0.05 nM.

A word on the Kd: it is the free concentration of one partner at which half of the binding sites on the other are occupied at equilibrium, for simple one-to-one binding.
